The text below walks through data of the DeepSol protein solubility set.

The series is described as follows: soluble on expression in E. coli; label from the status in PepcDB or PDB records.
For “MSLELYAASYILPIASPPIPGGAVAVHDGCIVETGTLAELRSRHSGPVHDFPGCAILPGLVNAHTHLELTHFPSWKIRKGIDYSPRTYVDWIIQVIKIRRALSPQELELSVREGLRICLEAGTTAIGEILTDRSLIPLYADSGLRGRLLFEAIGHDPVRNAQLVEELDAAIASFSGGSFLPGISPHAPHTVAEHLHQDVYRLAYERNVPRVIHLAESREESDFFFDSSGKIAEFLYPHVRWESYLPAPRRTTATAWLDGLGVLNGTISAVHCVHLTPSDAEILAKRGVGVVLCPRSNDKLAVGRAPVVLLKRLGVPLALGTDSLASNDSLSLWDEMRYLLDTFPGIFTPTEALSMTTIGSARQLALADRTGSLDKGKHADFLVMKLPGRNGSGEALHEALIHSGEILQVFLAGNLVVSREAFSEGHHHHHH”, the “soluble on expression in E. coli” value is reported as “soluble”.

As to “MRIGPELLQDLLDRVEGSLAAAIGTADGLLVEGVRKRPLDLEAAIAEHAALWRQARAAYARSLGAEEVGELLVGGTGVVGYLRSMRTRDPEPLFLLLLLTPEANLGQARLAARRLLDRAGGVVAWPT”, the “soluble on expression in E. coli” value was “soluble”.

For “MDLERLAQRLEGLRGYLDIPQKETRLKELERRLEDPSLWNDPEAARKVSQEAARLRRTVDTFRSLESDLQGLLELMEELPAEEREALKPELEEAAKKLDELYHQTLLNFPHAEKNAILTIQPGAGGTEACDWAEMLLRMYTRFAERQGFQVEVVDLTPGPEAGIDYAQILVKGENAYGLLSPEAGVHRLVRPSPFDASGRRHTSFAGVEVIPEVDEEVEVVLKPEELRIDVMRASGPGAQGVNTTDSAVRVVHLPTGITVTCQTTRSQIKNKELALKILKARLYELERKKREEELKALRGEVRPIEWGSQIRSYVLDKNYVKDHRTGLMRHDPENVLDGDLMDLIWAGLEWKAGRRQGTEEVEAE”, the “soluble on expression in E. coli” value is listed as “soluble”.

As to “MSLNLIKYGLTTAVQADLTKENGQILGRIIGQHRDWYQVITTAGERSAQVTGKLAYEAASPAAFPAVGDWVCLSSSADNQAQIEAIAPRQSVLARGAVNRQDGQIIATNINTIFICMSLNADFNVRRLERYLTIAWDSGALPVIVLTKADLCTDLATKLRAVADVSVGVPTITCSVETGQGLDELQPYLTTGQTVAFVGSSGVGKSTLINRLLGQDILATKSIRTDDNKGRHTTTSRQLIPLPTGACVIDTPGMRELQIFMGDLNQTFAEIAALATQCKFNDCTHTSEPGCAVRAAVEVGTVTSERLQSYQKLQREMSYQGEGHHHHHH”, the “soluble on expression in E. coli” value is “soluble”.

With “MSLLQVAPSAYRRHAARQRCPKLRSARSQRDEGLMAEIRRVWQANMQVYGVRKVWYQLQREGIAVARCTVERLMRRLGLQGVRRGKRVRTTIADGSQACSLDRVNRHFHADRPNQLWVSDFTYVSTWQGWLYVAFVIDVFARRIVGWRVSTTMSTDFVLDALEQALYDRRPAESLIHHSDRGSQYVSIRYTERLAEAGIEPSVGSRGDSYDNALAETINGLYKAELIHRRAPWKTRAAVELATLEWVAWYNHQRLLGSIGYIPPAQAEELYHRTHSETVPMNAVLEGHHHHHH”, the “soluble on expression in E. coli” value is “not soluble”.

Consider “VTVTLCSPTEDDWPGMFLLAAASFTDFIGPESATAWRTLVPTDGAVVVRDGAGPGSEVVGMALYMDLRLTVPGEVVLPTAGLSFVAVAPTHRRRGLLRAMCAELHRRIADSGYPVAALHASEGGIYGRFGYGPATTLHELTVDRRFARFHADAPGGGLGGSSVRLVRPTEHRGEFEAIYERWRQQVPGGLLRPQVLWDELLAECKAAPGGDRESFALLHPDGYALYRVDRTDLKLARVSELRAVTADAHCALWRALIGLDSMERISIITHPQDPLPHLLTDTRLARTTWRQDGLWLRIMNVPAALEARGYAHEVGEFSTVLEVSDGGRFALKIGDGRARCTPTDAAAEIEMDRDVLGSLYLGAHRASTLAAANRLRTKDSQLLRRLDAAFASDVPVQTAFEF”, for which the “soluble on expression in E. coli” value was “not soluble”.

Regarding “QVQLQESGGGLVQAGGSLRLSCTASRRTGSNWCMGWFRQLAGKEPELVVALNFDYDMTYYADSVKGRFTVSRDSGKNTVYLQMNSLKPEDTAIYYCAARSGGFSSNRELYDGWGQGTQVTVSS”, the “soluble on expression in E. coli” value is recorded as “soluble”.

In the case of “VSDVPRDIEVVAVTPTSALISWDAPAVTIRYIRLTYGETGGNSPVQEITLPGSKSTYTISGLKPGTDYTVTLYSVTGRGDSPASSKPASINFRTEI”, the “soluble on expression in E. coli” value was “soluble”.
